According to patent US20260201033A1 (LTZ THERAPEUTICS, published 2026):
Values belong to the binder of their own block, whether it stands above or below them.

What was measured:
[1] = target: T1, Human CLEC5A His Tag protein (ACROBiosystems, Cat #: CLA-H5243) (human, UniProt Q9NY25 28-188, limits assumed); test: ELISA, plate coated with human CLEC5A
T1 construct: Bought protein with a His tag; also called recombinant human CLEC5A protein
T1 sequence: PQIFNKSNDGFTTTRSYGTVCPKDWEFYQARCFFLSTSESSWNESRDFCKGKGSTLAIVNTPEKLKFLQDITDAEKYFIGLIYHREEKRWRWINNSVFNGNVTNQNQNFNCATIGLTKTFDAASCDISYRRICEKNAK
Experimental: Protein antigen was aspirated, and wells were washed 3 times with 400 μL of wash buffer (0.05% Tween® 20 in PBS) using a plate washer. Anti-CLEC5A antibodies were prepared as the primary antibody at 5 μg/mL and serially diluted 3-fold through 11 points (diluted concentrations) with reagent buffer (PBS+0.05% BSA). 100 μL of primary antibody was added to appropriate wells and incubated for 1 hour at room temperature. Primary antibody was aspirated, and wells were washed 3 times with 400 μL of wash buffer (0.05% Tween® 20 in PBS) using a plate washer. […] Secondary antibody was aspirated, and wells were washed 3 times with 400 μL of wash buffer (0.05% Tween® 20 in PBS) using a plate washer. […] 100 μL of Fisher 1N Sulfuric Acid (Cat #: SA212-2) stop solution was added to each well and the plate was read in a plate reader at 450 nm. For analysis, OD450 of each antibody was plotted using GraphPad Prism software (Version 9.4.1; GraphPad Software Inc.).

[2] = target: T2, Human C-type lectin domain family 5 member A (CLEC5A), endogenous on human monocytes and M0 macrophages (human, UniProt Q9NY25 1-188); test: flow cytometry on human M0 macrophages, anti-human IgG PE
T2 construct: Endogenous CLEC5A on primary human monocytes and monocyte-derived M0 macrophages; also called MDL-1; M0 macrophages (CLEC5A+) cells
T2 sequence: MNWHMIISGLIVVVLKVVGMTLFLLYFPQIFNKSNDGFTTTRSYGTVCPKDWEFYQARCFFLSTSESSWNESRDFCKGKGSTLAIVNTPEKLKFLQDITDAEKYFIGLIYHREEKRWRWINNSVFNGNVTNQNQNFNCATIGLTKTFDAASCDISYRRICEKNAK
Experimental: About 50,000 M0 macrophages were incubated with serially diluted antibodies in FACS buffer (PBS+0.5% BSA) for 30 minutes on ice. […] For analysis, the mean fluorescence intensity (MFI of PE) of each antibody was determined and plotted using GraphPad Prism software (Version 9.4.1; GraphPad Software Inc.).

[3] = target: T3, CD79b on Ramos cells and on endogenous B cells of human PBMCs (human, UniProt P40259 29-229); test: cell-based or functional assay
T3 sequence (looked up): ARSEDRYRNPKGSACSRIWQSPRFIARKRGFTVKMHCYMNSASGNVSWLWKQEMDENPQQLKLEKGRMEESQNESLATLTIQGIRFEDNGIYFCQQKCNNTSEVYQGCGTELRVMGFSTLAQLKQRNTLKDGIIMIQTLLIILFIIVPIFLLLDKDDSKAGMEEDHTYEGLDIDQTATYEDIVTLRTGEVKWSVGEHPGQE

[4] = target: T3, CD79b on Ramos cells and on endogenous …; test: cell-based or functional assay; remark: listed apart in the source
[5] = target: T3, CD79b on Ramos cells and on endogenous …; test: cell-based or functional assay; remark: listed apart in the source
[6] = target: T3, CD79b on Ramos cells and on endogenous …; test: cell-based or functional assay; remark: listed apart in the source
[7] = target: T3, CD79b on Ramos cells and on endogenous …; test: cell-based or functional assay; remark: listed apart in the source
[8] = target: T3, CD79b on Ramos cells and on endogenous …; test: cell-based or functional assay; remark: listed apart in the source
[9] = target: T4, recombinant human CLEC5A, His Tag (ACROBiosystems, Cat #: NC1-H52H4) (human, UniProt Q9NY25 28-188); test: BLI, antibody 10 ug/ml captured on anti-human IgG Fc probe, analyte hCLEC5a; table row hCLEC5a 0.78 nM; all four rows print the same value
T4 construct: Analyte of the BLI assay; Its catalogue number differs from that of the ELISA antigen; also called human CLEC5A (BLI analyte)
T4 sequence: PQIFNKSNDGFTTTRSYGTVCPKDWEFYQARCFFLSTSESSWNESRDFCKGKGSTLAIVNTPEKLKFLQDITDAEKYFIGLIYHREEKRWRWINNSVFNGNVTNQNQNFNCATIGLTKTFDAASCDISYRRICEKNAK

[10] = target: T4, recombinant human CLEC5A, His Tag …; test: BLI, antibody 10 ug/ml captured on anti-human IgG Fc probe, analyte hCLEC5a; table row hCLEC5a 1.56 nM; all four rows print the same value
[11] = target: T4, recombinant human CLEC5A, His Tag …; test: BLI, antibody 10 ug/ml captured on anti-human IgG Fc probe, analyte hCLEC5a; table row hCLEC5a 3.12 nM; all four rows print the same value
[12] = target: T4, recombinant human CLEC5A, His Tag …; test: BLI, antibody 10 ug/ml captured on anti-human IgG Fc probe, analyte hCLEC5a; table row hCLEC5a 6.25 nM; all four rows print the same value

B1: 7G10, chimeric rabbit/human IgG1 anti-CLEC5A antibody (Fc-silenced) (antibody, V domains shown)
VH: QQQLEESGGGLVKPGGTLTLTCKASGFSFSSGYDMCWVRQAPGKGLEWIACIYGGRSDNVYYARWAKGRFTISKTSSTTVTLQMTSLTAADTATYFCARDYLYRGYIGGGYGRSNLWGPGTLVTVSS
VL: DVVMTQTPASVSAAVGGTVTINCRASEDIENCLAWYQQKPGQPPKLLIYQASKLPSGVPSRFSGSGSGTEYTLTISDLEPDDGATYYCQNPDYMRNTDNLFGGGTEVVVK
notes: also called ch7G10
EC50 [1]: 0.16 nM | EC50 [2]: 2.06 nM

B2: CD79b/5C7 (1+1 B) Fc-optimized (bispecific antibody, human IgG1, kappa)
heavy 1: EQQLVETGGGLIQPGGSLRLSCAASGFTINIDYWISWVRQAPGKGLEWIGIIDPGDGTTYFAIWVSGRFTISFDNSKNTVYLQMNSLRAEDTAVYFCVREFSASAYQYDLWGPGTLVTVSSASTKGPSVFPLAPSSKSTSGGTAALGCLVKDYFPEPVTVSWNSGALTSGVHTFPAVLQSSGLYSLSSVVTVPSSSLGTQTYICNVNHKPSNTKVDKKVEPKSCDKTHTCPPCPAPELLAGPSVFLFPPKPKDTLMISRTPEVTCVVVDVSHEDPEVKFNWYVDGVEVHNAKTKPREEQYNSTYRVVSVLTVLHQDWLNGKEYKCKVSNKALPLPEEKTISKAKGQPREPQVYTLPPSRDELTKNQVSLSCAVKGFYPSDIAVEWESNGQPENNYKTTPPVLDSDGSFFLVSKLTVDKSRWQQGNVFSCSVMHEALHNHYTQKSLSLSPGK
heavy 2: DIQMTQSPSSLSASVGDRVTITCQASESVDRNNRLAWFQQKPGKPPKLLIYTTSTLASGVPSRFSGSGSGTDFTLTISSLQPEDVATYYCAGYRGAHTDGDAFGGGTKVEIKGGGGSGGGGSGGGGSGGGGSEQQLVESGGGLVKPGGSLRLSCAASGFSFSRSSYMCWVRQAPGKGLEWIGCLSVGDGHTYYASWAKGRFTISKDSAKNSVYLQMNSLRAEDTAVYFCARAPSYSGDGGHGYDLWGPGTLVTVSSDKTHTCPPCPAPELLAGPSVFLFPPKPKDTLMISRTPEVTCVVVDVSHEDPEVKFNWYVDGVEVHNAKTKPREEQYNSTYRVVSVLTVLHQDWLNGKEYKCKVSNKALPLPEEKTISKAKGQPREPQVYTLPPSRDELTKNQVSLWCLVKGFYPSDIAVEWESNGQPENNYKTTPPVLDSDGSFFLYSKLTVDKSRWQQGNVFSCSVMHEALHNHYTQKSLSLSPGK
light: ELVMTQSPATLSVSPGERATLSCRASEDIENYLAWYQQKPGQPPRLLIYRASTLSSGVPARFSGSGSGTEFTLTISSLQSEDFAVYYCQQGYRNSNVDNPFGGGTKVEIKRTVAAPSVFIFPPSDEQLKSGTASVVCLLNNFYPREAKVQWKVDNALQSGNSQESVTEQDSKDSTYSLSSTLTLSKADYEKHKVYACEVTHQGLSSPVTKSFNRGEC
IC50 (nM), Ramos cell killing by PBMCs (test 2), Donor 431 [3]: 0.0253 nM | IC50 (nM), Ramos cell killing by PBMCs (test 3), Donor 281 [4]: 0.0123 nM | IC50 (nM), Ramos cell killing by PBMCs (test 3), Donor 367 [4]: 0.841 nM | IC50 (nM), killing of endogenous B cells by PBMCs, Donor 367 [5]: 0.0253 nM | IC50 (nM), killing of endogenous B cells by PBMCs, Donor 431 [5]: 0.0253 nM | IC50 (nM), Ramos cell killing by M0 macrophages, Donor 431 [6]: 0.003 nM | IC50 (nM), Ramos cell killing by M1 macrophages, Donor 431 [7]: 0.006 nM | IC50 (nM), Ramos cell killing by M2 macrophages, Donor 431 [8]: 0.001 nM

B3: CD79b/5C7 (2+2 B) Fc-silenced (bispecific antibody, human IgG1, kappa, L234A L235A)
heavy: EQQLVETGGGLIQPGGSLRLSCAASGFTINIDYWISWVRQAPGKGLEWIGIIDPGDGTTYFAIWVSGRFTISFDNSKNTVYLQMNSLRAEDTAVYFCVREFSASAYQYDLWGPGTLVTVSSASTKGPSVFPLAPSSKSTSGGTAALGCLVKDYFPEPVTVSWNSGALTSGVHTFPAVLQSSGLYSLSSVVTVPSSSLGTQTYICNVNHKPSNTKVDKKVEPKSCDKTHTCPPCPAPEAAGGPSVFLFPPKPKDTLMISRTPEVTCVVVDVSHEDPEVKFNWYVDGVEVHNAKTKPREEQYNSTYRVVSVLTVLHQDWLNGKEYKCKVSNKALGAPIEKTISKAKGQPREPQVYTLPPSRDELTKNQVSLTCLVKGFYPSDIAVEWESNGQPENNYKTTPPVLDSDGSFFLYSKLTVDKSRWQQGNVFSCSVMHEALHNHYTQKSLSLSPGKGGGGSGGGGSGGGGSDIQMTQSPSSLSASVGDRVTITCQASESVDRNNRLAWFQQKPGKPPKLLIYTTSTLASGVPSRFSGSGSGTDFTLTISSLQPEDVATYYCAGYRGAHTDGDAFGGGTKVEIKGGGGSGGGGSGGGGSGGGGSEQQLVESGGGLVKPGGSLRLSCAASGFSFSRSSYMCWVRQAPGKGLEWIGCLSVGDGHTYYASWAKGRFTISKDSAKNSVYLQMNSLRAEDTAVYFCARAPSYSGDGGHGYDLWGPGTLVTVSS
light: ELVMTQSPATLSVSPGERATLSCRASEDIENYLAWYQQKPGQPPRLLIYRASTLSSGVPARFSGSGSGTEFTLTISSLQSEDFAVYYCQQGYRNSNVDNPFGGGTKVEIKRTVAAPSVFIFPPSDEQLKSGTASVVCLLNNFYPREAKVQWKVDNALQSGNSQESVTEQDSKDSTYSLSSTLTLSKADYEKHKVYACEVTHQGLSSPVTKSFNRGEC
IC50 (nM), Ramos cell killing by PBMCs (test 2), Donor 431 [3]: 0.0062 nM | IC50 (nM), Ramos cell killing by PBMCs (test 3), Donor 022 [4]: 0.131 nM | IC50 (nM), Ramos cell killing by PBMCs (test 3), Donor 281 [4]: 0.043 nM | IC50 (nM), Ramos cell killing by PBMCs (test 3), Donor 367 [4]: 0.0643 nM | IC50 (nM), killing of endogenous B cells by PBMCs, Donor 023 [5]: 0.0231 nM | IC50 (nM), killing of endogenous B cells by PBMCs, Donor 367 [5]: 0.00617 nM | IC50 (nM), killing of endogenous B cells by PBMCs, Donor 431 [5]: 0.00617 nM | IC50 (nM), Ramos cell killing by M0 macrophages, Donor 022 [6]: 0.002 nM | IC50 (nM), Ramos cell killing by M0 macrophages, Donor 100 [6]: 0.0008 nM | IC50 (nM), Ramos cell killing by M0 macrophages, Donor 159 [6]: 0.001 nM | IC50 (nM), Ramos cell killing by M0 macrophages, Donor 161 [6]: 0.0008 nM | IC50 (nM), Ramos cell killing by M0 macrophages, Donor 233 [6]: 0.002 nM | IC50 (nM), Ramos cell killing by M1 macrophages, Donor 100 [7]: 0.0007 nM | IC50 (nM), Ramos cell killing by M1 macrophages, Donor 431 [7]: 0.0014 nM | IC50 (nM), Ramos cell killing by M2 macrophages, Donor 022 [8]: 0.001 nM | IC50 (nM), Ramos cell killing by M2 macrophages, Donor 100 [8]: 0.0004 nM | IC50 (nM), Ramos cell killing by M2 macrophages, Donor 233 [8]: 0.002 nM | IC50 (nM), Ramos cell killing by M2 macrophages, Donor 431 [8]: 0.0009 nM

B4: 3A7, chimeric rabbit/human IgG1 anti-CLEC5A antibody (Fc-silenced) (antibody, V domains shown)
VH: QSLEESGGDLVKPGASLTLTCTASGFSFSGMYWICWVRQAPGKGLEWIACIYTGSSTTGYASWAKGRFTISKTSSTTVTLQMTSLTAADTATHFCASPYGDSSHYRGLNLWGPGTLVTVSS
VL: AVVMTQTPASVEAAVGGTVTINCQASQRINNYLSWFQQKPGQPPKLLIYGAATLASGVPSRFKGSGSGTEYTLTISDLEPADAATYYCQCTYGIPSSNYGFGGGTEVVVK
notes: also called ch3A7
EC50 [1]: 0.71 nM | EC50 [2]: 0.96 nM | Kd [9]: 0.0631 nM | koff [9]: 8.96e-05 s⁻¹ | kon [9]: 1.42e+06 M⁻¹ s⁻¹ | Kd [10]: 0.0631 nM | koff [10]: 8.96e-05 s⁻¹ | kon [10]: 1.42e+06 M⁻¹ s⁻¹ | Kd [11]: 0.0631 nM | koff [11]: 8.96e-05 s⁻¹ | kon [11]: 1.42e+06 M⁻¹ s⁻¹ | Kd [12]: 0.0631 nM | koff [12]: 8.96e-05 s⁻¹ | kon [12]: 1.42e+06 M⁻¹ s⁻¹

B5: 6G9, chimeric rabbit/human IgG1 anti-CLEC5A antibody (Fc-silenced) (antibody, V domains shown)
VH: QSLEESGGDLVKPGASLTLTCTASGFSFTSNKYMCWVRQAPGKGPEWIACIYVGDGNTYYASWAKGRFTISKTSSTTVTLQMTSLTVADTATYFCARGGDYSIGGGGFASNLWGPGTLVTVSS
VL: AFELTQTPSSVEAAVGGTVTINCQASESISNFLAWYRQKPGQPPKLLIYRASTLASGVSSRFKGSGSGTEFTLTISDLEPADGASYYCQSYYGTSSTGHNVFGGGTEVVVK
notes: also called ch6G9
EC50 [2]: 6.84 nM

Further lines, results first:

EC50 [2]: 1.59 nM
B6: 9E11, chimeric rabbit/human IgG1 anti-CLEC5A antibody (Fc-silenced) (antibody, V domains shown)
VH: QSLEESGGGLVQPEGSLTLTCTASGFDLNNYYYMCWVRQAPGKGLEWIACTHAGSSSSSYYARWAKGRFTISKTSSTTVTLQMTSLTAADTATYFCARHDRDYDDMDLWGPGTLVTVSS
VL: NIVMTQTTSPVSAVVGGTITINCQASQSIEYGYLSWYQQKPGQPPKLLIFYASKLASGVPSRFSGSGSGTQFTLTISGVQPDDAATYFCLYGYFDDYSGAAFGGGTEVVVK
notes: also called ch9E11

EC50 [1]: 0.61 nM | EC50 [2]: 2.57 nM
B7: 13E6, chimeric rabbit/human IgG1 anti-CLEC5A antibody (Fc-silenced) (antibody, V domains shown)
VH: QSLEESGGDLVKPGGTLTLTCTASGFSFSSSYWLCWVRQAPGKGLEWIACIYGGSSRGTYYASWAKGRFTISKTSSTTVTLQMTSLTAADTATYFCASHTYTYPRFSPYFNLWGPGTLVSVSS
VL: AFEMTQTPASVSPAVGGTVSINCQASEDIESSLAWYQQKPGQPPKLLIYDASDLESGVPSRFKGSGSGTEYTLTISGVQPADAATYFCQSAYYTGSADNTFGGGTEVVVK
notes: also called ch13E6

EC50 [2]: 2.8 nM
B8: DX244, reference anti-CLEC5A antibody (antibody, human IgG1, V domains shown)
VH: QIQLVQSGPELKKPGETVKISCKASGYTFTIYAMNWVKQAPGKGLEWMGWINTDTGEPTYADDFKGRFAFSLETSASTAYLQINNLKNEDMATYFCARSSEVFYDYRFDYWGQGTALTVSS
VL: DIQMTQSPSSLSASLGERVSLTCRASQDIGSSLNWLQQEPDGTIKRLIYATSNLDSGVPKRFSGSRSGSDYSLTISSLESEDFVHYYCLQYASSPFTFGSGTKLEIKR
notes: also called benchmark DX244
